Assay results reported in patent US20230407373A1 (priority 2020, published 2023).
Read-outs that look alike come from different tables or passages of the source.

B1: DHX8 (protein, UniProt Q14562 1-1220, looked up)
ATP-dependent RNA helicase …: MAVAVAMAGALIGSEPGPAEELAKLEYLSLVSKVCTELDNHLGINDKDLAEFVISLAEKNTTFDTFKASLVKNGAEFTDSLISNLLRLIQTMRPPAKPSTSKDPVVKPKTEKEKLKELFPVLCQPDNPSVRTMLDEDDVKVAVDVLKELEALMPSAAGQEKQRDAEHRDRTKKKKRSRSRDRNRDRDRDRERNRDRDHKRRHRSRSRSRSRTRERNKVKSRYRSRSRSQSPPKDRKDRDKYGERNLDRWRDKHVDRPPPEEPTIGDIYNGKVTSIMQFGCFVQLEGLRKRWEGLVHISELRREGRVANVADVVSKGQRVKVKVLSFTGTKTSLSMKDVDQETGEDLNPNRRRNLVGETNEETSMRNPDRPTHLSLVSAPEVEDDSLERKRLTRISDPEKWEIKQMIAANVLSKEEFPDFDEETGILPKVDDEEDEDLEIELVEEEPPFLRGHTKQSMDMSPIKIVKNPDGSLSQAAMMQSALAKERRELKQAQREAEMDSIPMGLNKHWVDPLPDAEGRQIAANMRGIGMMPNDIPEWKKHAFGGNKASYGKKTQMSILEQRESLPIYKLKEQLVQAVHDNQILIVIGETGSGKTTQITQYLAEAGYTSRGKIGCTQPRRVAAMSVAKRVSEEFGCCLGQEVGYTIRFEDCTSPETVIKYMTDGMLLRECLIDPDLTQYAIIMLDEAHERTIHTDVLFGLLKKTVQKRQDMKLIVTSATLDAVKFSQYFYEAPIFTIPGRTYPVEILYTKEPETDYLDASLITVMQIHLTEPPGDILVFLTGQEEIDTACEILYERMKSLGPDVPELIILPVYSALPSEMQTRIFDPAPPGSRKVVIATNIAETSLTIDGIYYVVDPGFVKQKVYNSKTGIDQLVVTPISQAQAKQRAGRAGRTGPGKCYRLYTERAYRDEMLTTNVPEIQRTNLASTVLSLKAMGINDLLSFDFMDAPPMETLITAMEQLYTLGALDDEGLLTRLGRRMAEFPLEPMLCKMLIMSVHLGCSEEMLTIVSMLSVQNVFYRPKDKQALADQKKAKFHQTEGDHLTLLAVYNSWKNNKFSNPWCYENFIQARSLRRAQDIRKQMLGIMDRHKLDVVSCGKSTVRVQKAICSGFFRNAAKKDPQEGYRTLIDQQVVYIHPSSALFNRQPEWVVYHELVLTTKEYMREVTTIDPRWLVEFAPAFFKVSDPTKLSKQKKQQRLEPLYNRYEEPNAWRISRAFRRR
B2: BAZ1B (protein, UniProt Q9UIG0 1-1483, looked up)
Tyrosine-protein kinase BAZ1B: MAPLLGRKPFPLVKPLPGEEPLFTIPHTQEAFRTREEYEARLERYSERIWTCKSTGSSQLTHKEAWEEEQEVAELLKEEFPAWYEKLVLEMVHHNTASLEKLVDTAWLEIMTKYAVGEECDFEVGKEKMLKVKIVKIHPLEKVDEEATEKKSDGACDSPSSDKENSSQIAQDHQKKETVVKEDEGRRESINDRARRSPRKLPTSLKKGERKWAPPKFLPHKYDVKLQNEDKIISNVPADSLIRTERPPNKEIVRYFIRHNALRAGTGENAPWVVEDELVKKYSLPSKFSDFLLDPYKYMTLNPSTKRKNTGSPDRKPSKKSKTDNSSLSSPLNPKLWCHVHLKKSLSGSPLKVKNSKNSKSPEEHLEEMMKMMSPNKLHTNFHIPKKGPPAKKPGKHSDKPLKAKGRSKGILNGQKSTGNSKSPKKGLKTPKTKMKQMTLLDMAKGTQKMTRAPRNSGGTPRTSSKPHKHLPPAALHLIAYYKENKDREDKRSALSCVISKTARLLSSEDRARLPEELRSLVQKRYELLEHKKRWASMSEEQRKEYLKKKREELKKKLKEKAKERREKEMLERLEKQKRYEDQELTGKNLPAFRLVDTPEGLPNTLFGDVAMVVEFLSCYSGLLLPDAQYPITAVSLMEALSADKGGFLYLNRVLVILLQTLLQDEIAEDYGELGMKLSEIPLTLHSVSELVRLCLRRSDVQEESEGSDTDDNKDSAAFEDNEVQDEFLEKLETSEFFELTSEEKLQILTALCHRILMTYSVQDHMETRQQMSAELWKERLAVLKEENDKKRAEKQKRKEMEAKNKENGKVENGLGKTDRKKEIVKFEPQVDTEAEDMISAVKSRRLLAIQAKKEREIQEREMKVKLERQAEEERIRKHKAAAEKAFQEGIAKAKLVMRRTPIGTDRNHNRYWLFSDEVPGLFIEKGWVHDSIDYRFNHHCKDHTVSGDEDYCPRSKKANLGKNASMNTQHGTATEVAVETTTPKQGQNLWFLCDSQKELDELLNCLHPQGIRESQLKERLEKRYQDIIHSIHLARKPNLGLKSCDGNQELLNFLRSDLIEVATRLQKGGLGYVEETSEFEARVISLEKLKDFGECVIALQASVIKKFLQGFMAPKQKRRKLQSEDSAKTEEVDEEKKMVEEAKVASALEKWKTAIREAQTFSRMHVLLGMLDACIKWDMSAENARCKVCRKKGEDDKLILCDECNKAFHLFCLRPALYEVPDGEWQCPACQPATARRNSRGRNYTEESASEDSEDDESDEEEEEEEEEEEEEDYEVAGLRLRPRKTIRGKHSVIPPAARSGRRPGKKPHSTRRSQPKAPPVDDAEVDELVLQTKRSSRRQSLELQKCEEILHKIVKYRFSWPFREPVTRDEAEDYYDVITHPMDFQTVQNKCSCGSYRSVQEFLTDMKQVFTNAEVYNCRGSHVLSCMVKTEQCLVALLHKHLPGHPYVRRKRKKFPDRLAEDEGDSEPEAVGQSRGRRQKK
B3: DDX21 (protein, UniProt Q9NR30 1-783, looked up)
Nucleolar RNA helicase 2: MPGKLRSDAGLESDTAMKKGETLRKQTEEKEKKEKPKSDKTEEIAEEEETVFPKAKQVKKKAEPSEVDMNSPKSKKAKKKEEPSQNDISPKTKSLRKKKEPIEKKVVSSKTKKVTKNEEPSEEEIDAPKPKKMKKEKEMNGETREKSPKLKNGFPHPEPDCNPSEAASEESNSEIEQEIPVEQKEGAFSNFPISEETIKLLKGRGVTFLFPIQAKTFHHVYSGKDLIAQARTGTGKTFSFAIPLIEKLHGELQDRKRGRAPQVLVLAPTRELANQVSKDFSDITKKLSVACFYGGTPYGGQFERMRNGIDILVGTPGRIKDHIQNGKLDLTKLKHVVLDEVDQMLDMGFADQVEEILSVAYKKDSEDNPQTLLFSATCPHWVFNVAKKYMKSTYEQVDLIGKKTQKTAITVEHLAIKCHWTQRAAVIGDVIRVYSGHQGRTIIFCETKKEAQELSQNSAIKQDAQSLHGDIPQKQREITLKGFRNGSFGVLVATNVAARGLDIPEVDLVIQSSPPKDVESYIHRSGRTGRAGRTGVCICFYQHKEEYQLVQVEQKAGIKFKRIGVPSATEIIKASSKDAIRLLDSVPPTAISHFKQSAEKLIEEKGAVEALAAALAHISGATSVDQRSLINSNVGFVTMILQCSIEMPNISYAWKELKEQLGEEIDSKVKGMVFLKGKLGVCFDVPTASVTEIQEKWHDSRRWQLSVATEQPELEGPREGYGGFRGQREGSRGFRGQRDGNRRFRGQREGSRGPRGQRSGGGNKSNRSQNKGQKRSFSKAFGQ
B4: KRT6A (protein, UniProt P02538 2-564, looked up)
Keratin, type II cytoskeletal …: ASTSTTIRSHSSSRRGFSANSARLPGVSRSGFSSVSVSRSRGSGGLGGACGGAGFGSRSLYGLGGSKRISIGGGSCAISGGYGSRAGGSYGFGGAGSGFGFGGGAGIGFGLGGGAGLAGGFGGPGFPVCPPGGIQEVTVNQSLLTPLNLQIDPTIQRVRAEEREQIKTLNNKFASFIDKVRFLEQQNKVLETKWTLLQEQGTKTVRQNLEPLFEQYINNLRRQLDSIVGERGRLDSELRGMQDLVEDFKNKYEDEINKRTAAENEFVTLKKDVDAAYMNKVELQAKADTLTDEINFLRALYDAELSQMQTHISDTSVVLSMDNNRNLDLDSIIAEVKAQYEEIAQRSRAEAESWYQTKYEELQVTAGRHGDDLRNTKQEIAEINRMIQRLRSEIDHVKKQCANLQAAIADAEQRGEMALKDAKNKLEGLEDALQKAKQDLARLLKEYQELMNVKLALDVEIATYRKLLEGEECRLNGEGVGQVNISVVQSTVSSGYGGASGVGSGLGLGGGSSYSYGSGLGVGGGFSSSSGRAIGGGLSSVGGGSSTIKYTTTSSSSRKSYKH
B5: RBFOX2 (protein, UniProt O43251 1-390, looked up)
RNA binding protein fox-1 …: MQNEPLTPGYHGFPARDSQGNQEPTTTPDAMVQPFTTIPFPPPPQNGIPTEYGVPHTQDYAGQTGEHNLTLYGSTQAHGEQSSNSPSTQNGSLTTEGGAQTDGQQSQTQSSENSESKSTPKRLHVSNIPFRFRDPDLRQMFGQFGKILDVEIIFNERGSKGFGFVTFENSADADRAREKLHGTVVEGRKIEVNNATARVMTNKKMVTPYANGWKLSPVVGAVYGPELYAASSFQADVSLGNDAAVPLSGRGGINTYIPLISLPLVPGFPYPTAATTAAAFRGAHLRGRGRTVYGAVRAVPPTAIPAYPGVVYQDGFYGADLYGGYAAYRYAQPATATAATAAAAAAAAYSDGYGRVYTADPYHALAPAASYGVGAVASLYRGGYSRFAPY
B6: HNRNPA261 (protein, UniProt P22626 1-353, looked up)
Heterogeneous nuclear …: MEKTLETVPLERKKREKEQFRKLFIGGLSFETTEESLRNYYEQWGKLTDCVVMRDPASKRSRGFGFVTFSSMAEVDAAMAARPHSIDGRVVEPKRAVAREESGKPGAHVTVKKLFVGGIKEDTEEHHLRDYFEEYGKIDTIEIITDRQSGKKRGFGFVTFDDHDPVDKIVLQKYHTINGHNAEVRKALSRQEMQEVQSSRSGRGGNFGFGDSRGGGGNFGPGPGSNFRGGSDGYGSGRGFGDGYNGYGGGPGGGNFGGSPGYGGGRGGYGGGGPGYGNQGGGYGGGYDNYGGGNYGSGNYNDFGNYNQQPSNYGPMKSGNFGGSRNMGGPYGGGNYGPGGSGGSGGYGGRSRY
B7: PKP1 (protein, UniProt Q13835 1-747, looked up)
Plakophilin-1: MNHSPLKTALAYECFQDQDNSTLALPSDQKMKTGTSGRQRVQEQVMMTVKRQKSKSSQSSTLSHSNRGSMYDGLADNYNYGTTSRSSYYSKFQAGNGSWGYPIYNGTLKREPDNRRFSSYSQMENWSRHYPRGSCNTTGAGSDICFMQKIKASRSEPDLYCDPRGTLRKGTLGSKGQKTTQNRYSFYSTCSGQKAIKKCPVRPPSCASKQDPVYIPPISCNKDLSFGHSRASSKICSEDIECSGLTIPKAVQYLSSQDEKYQAIGAYYIQHTCFQDESAKQQVYQLGGICKLVDLLRSPNQNVQQAAAGALRNLVFRSTTNKLETRRQNGIREAVSLLRRTGNAEIQKQLTGLLWNLSSTDELKEELIADALPVLADRVIIPFSGWCDGNSNMSREVVDPEVFFNATGCLRKRLGMRELLALVPQRATSSRVNLSSADAGRQTMRNYSGLIDSLMAYVQNCVAASRCDDKSVENCMCVLHNLSYRLDAEVPTRYRQLEYNARNAYTEKSSTGCFSNKSDKMMNNNYDCPLPEEETNPKGSGWLYHSDAIRTYLNLMGKSKKDATLEACAGALQNLTASKGLMSSGMSQLIGLKEKGLPQIARLLQSGNSDVVRSGASLLSNMSRHPLLHRVMGNQVFPEVTRLLTSHTGNTSNSEDILSSACYTVRNLMASQPQLAKQYFSSSMLNNIINLCRSSASPKAAEAARLLLSDMWSSKELQGVLRQQGFDRNMLGTLAGANSLRNFTSRF

System: HCoV-OC43 gRNA and sgRNA
Assay type: binding
Conditions: tested against no-probe control, FDR<10%

| Molecule | target (unweighted spectral count, OC43 Probe II capture) (36 hpi, type n_36_v) | target (unweighted spectral count, OC43 Probe II capture) (24 hpi, type n_24_v) |
| --- | --- | --- |
| B1 | 27 | – |
| B2 | – | 4 |
| B3 | – | 7 |
| B4 | – | 4 |
| B5 | 4 | 4 |
| B6 | 70 | – |
| B7 | – | 4 |
